Measurements from US20210171654A1 (FORTY SEVEN, published 2021).
Where “and” joins values, the source holds several entries; their conditions need not be identical. Identical values can stand only once. Blank lines part the entries; values can stand above or below the binder they belong to.

Legend:
[1] = biological target: T1, human SIRPG-His fusion protein (human, UniProt Q9P1W8-2 29-327, limits assumed); test: ELISA, binding to human SIRPG-His fusion protein
T1 construct: also called SIRP gamma; not shown: His tag
T1 sequence (Q9P1W8 62-360 limits assumed): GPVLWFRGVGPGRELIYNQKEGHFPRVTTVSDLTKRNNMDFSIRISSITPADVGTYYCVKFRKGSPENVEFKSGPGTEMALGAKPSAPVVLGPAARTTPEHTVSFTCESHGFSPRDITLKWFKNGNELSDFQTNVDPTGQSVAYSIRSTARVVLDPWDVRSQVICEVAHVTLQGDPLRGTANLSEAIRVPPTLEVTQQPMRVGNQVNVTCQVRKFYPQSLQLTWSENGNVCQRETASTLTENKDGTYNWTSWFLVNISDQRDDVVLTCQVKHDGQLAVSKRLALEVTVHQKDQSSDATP

[2] = biological target: T2, human SIRP-alpha variant 1 (V1) on monocytes and macrophages of V1 homozygous donors (human, UniProt P78324 31-146); test: flow cytometry on monocytes; blocking of AF488-conjugated human CD47-Fc binding
T2 construct: the whole native protein stood on the cells; also called SIRPa V1
T2 sequence (P78324 31-146, change not shown): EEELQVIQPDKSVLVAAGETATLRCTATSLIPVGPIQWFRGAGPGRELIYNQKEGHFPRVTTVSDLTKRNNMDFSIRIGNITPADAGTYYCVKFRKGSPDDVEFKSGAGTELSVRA
Experimental: (§1) Blocking human CD47 binding on monocytes isolated from human donors. Human peripheral blood mononuclear cells (PBMCs) were isolated from human blood using Ficoll. 5×10⁵ cells were incubated with 1 ug/ml of AF488-conjugated human CD47-Fc fusion protein in the absence or presence of increasing concentrations of hHu1H9-G1. Binding of CD47 on the cells was measured and analyzed by flow cytometry.

[3] = biological target: T3, human SIRP-alpha variant 2 (V2) on monocytes and macrophages of V2 homozygous donors (human, UniProt Q5TFQ8 30-145); test: as above
T3 construct: the whole native protein stood on the cells; The definitions name GenBank CAA71403.1 for the V2 form (residues 30-504 mature); also called SIRPa V2
T3 sequence (Q5TFQ8 other isoform, or with tags, fused parts or gaps mutant): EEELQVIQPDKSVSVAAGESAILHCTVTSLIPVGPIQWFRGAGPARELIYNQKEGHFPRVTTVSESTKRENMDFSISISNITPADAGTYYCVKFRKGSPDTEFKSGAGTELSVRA
Experimental: as §1

[4] = biological target: T4, human SIRP-alpha V1/V5 (heterozygous) on monocytes and macrophages of V1/V5 donors (human); test: as above
T4 construct: Not a complex: the two allelic forms carried together by the cells of heterozygous donors
T4 sequence (P78324 whole entry): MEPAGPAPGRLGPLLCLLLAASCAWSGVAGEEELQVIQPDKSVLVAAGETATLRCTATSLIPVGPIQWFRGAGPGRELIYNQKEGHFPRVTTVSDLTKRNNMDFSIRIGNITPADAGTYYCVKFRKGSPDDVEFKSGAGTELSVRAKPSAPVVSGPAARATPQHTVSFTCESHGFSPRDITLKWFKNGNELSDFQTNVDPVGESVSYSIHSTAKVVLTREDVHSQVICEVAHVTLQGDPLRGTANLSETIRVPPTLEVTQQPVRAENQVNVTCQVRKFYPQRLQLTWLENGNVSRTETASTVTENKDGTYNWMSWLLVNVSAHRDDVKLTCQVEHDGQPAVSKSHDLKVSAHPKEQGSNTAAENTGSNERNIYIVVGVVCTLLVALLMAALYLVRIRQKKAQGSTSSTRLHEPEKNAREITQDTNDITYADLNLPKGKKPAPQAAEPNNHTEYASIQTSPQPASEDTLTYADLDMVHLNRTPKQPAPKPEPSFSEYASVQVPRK
Experimental: as §1

binding result [1]: no binding (tested: about 3000 ng/mL)
B1: 1H9 (parental mouse anti-human SIRPa monoclonal antibody) (antibody, V domains shown)
VH: QVQLQQPGAERVKPGASVKMSCKASGYTFTSYWITWVKQRPGQGLEWIGDIYPGSGSTNHIEKFKSKATLTVDTSSNTAYMQLSRLTSEDSAVYYCATGYGSSYGYFDYWGQGTTLTVSS
VL: DIQMTQSPASLSASVGETVTITCRASENIYSYLAWYQQKQGKSPQLLVYTAKTLAEGVPSRFSGSGSGTQFSLKINSLQPEDFGNYYCQHQYGPPFTFGSGTRLVIK
notes: Hybridoma-derived mouse antibody; also called mouse 1H9

IC50 (read off the curve) [2]: ~8 µg/mL and ~4 µg/mL
IC50 (read off the curve) [3]: ~20 µg/mL
IC50 (read off the curve) [4]: ~3 µg/mL
B2: Humanized 1H9 (antibody, human IgG1, kappa, N297A, V domains shown)
VH: QVQLVQSGAEVKKPGASVKVSCKASGYTFTSYWITWVKQAPGQGLEWIGDIYPGSGSTNHIEKFKSKATLTVDTSISTAYMELSRLRSDDTAVYYCATGYGSSYGYFDYWGQGTLVTVSS
VL: DIQMTQSPSSLSASVGDRVTITCRASENIYSYLAWYQQKPGKAPKLLIYTAKTLAEGVPSRFSGSGSGTDFTLTISSLQPEDFATYYCQHQYGPPFTFGQGTKLEIKR
notes: also called Hu1H9-G1; humanized 1H9-G1

binding result [1]: no binding (tested: about 3000 ng/mL)
B3: 3C2 (parental mouse anti-human SIRPa monoclonal antibody) (antibody, V domains shown)
VH: QVQLQQPGAELVRPGSSVKLSCKASGYTFTSYWMHWVKQRPIQGLEWIGNIDPSDSDTHYNQKFKDKATLTVDKSSSTAYMQLSSLTSEDSAVYYCARGYSKYYAMDYWGQGTSVTVSS
VL: DVLMTQTPLSLSVSLGDQASISCRSSQSIVHSYGNTYLEWYLQKPGQSPKLLIYKVSNRFSGVPDRFSGSGSGTDFTLKISRVEAEDLGVYYCFQGSHVPYTFGGGTKLEIK
notes: Hybridoma-derived mouse antibody; also called mouse 3C2
